# According to patent US20240390512A1, “METHODS OF TREATING CHEMOTHERAPY-RESISTANT CANCER WITH AN ANTIBODY-DRUG CONJUGATE” (DAIICHI SANKYO COMPANY, LIMITED, priority 2021, published 2024):
# Where a chain is given by its changes, count along the chain named.
# T1: hCDH6-transfected 293T cells (Homo sapiens, UniProt P55285)
# T1 construct: expressed in transfected cells; host or cells: 293T cells (ATCC)
# T1 sequence (P55285 19-790): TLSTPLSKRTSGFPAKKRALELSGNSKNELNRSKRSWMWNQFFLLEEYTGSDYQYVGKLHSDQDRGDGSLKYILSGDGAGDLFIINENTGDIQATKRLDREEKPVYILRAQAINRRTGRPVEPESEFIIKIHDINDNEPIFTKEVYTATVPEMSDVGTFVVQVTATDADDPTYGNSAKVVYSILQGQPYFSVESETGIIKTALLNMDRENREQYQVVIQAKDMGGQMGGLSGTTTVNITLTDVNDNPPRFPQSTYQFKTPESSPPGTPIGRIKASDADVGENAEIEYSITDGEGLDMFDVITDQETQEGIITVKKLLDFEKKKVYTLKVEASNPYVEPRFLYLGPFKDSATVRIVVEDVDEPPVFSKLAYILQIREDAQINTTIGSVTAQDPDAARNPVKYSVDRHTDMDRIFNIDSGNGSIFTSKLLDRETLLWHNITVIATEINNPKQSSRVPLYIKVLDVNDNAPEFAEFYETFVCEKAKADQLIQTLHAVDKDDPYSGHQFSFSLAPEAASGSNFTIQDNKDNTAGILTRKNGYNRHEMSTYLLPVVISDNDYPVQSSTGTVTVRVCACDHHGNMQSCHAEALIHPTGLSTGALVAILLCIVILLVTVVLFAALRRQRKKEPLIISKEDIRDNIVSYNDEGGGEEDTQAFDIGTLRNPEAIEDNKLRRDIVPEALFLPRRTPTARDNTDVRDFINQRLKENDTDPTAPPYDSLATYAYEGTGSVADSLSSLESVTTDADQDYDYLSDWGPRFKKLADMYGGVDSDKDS
# T2: human CDH6 (Homo sapiens, UniProt P55285)
# T2 construct: expressed in transfected cells; host or cells: 293α cells (HEK293 stably expressing integrin αv and β3)
# T2 sequence (P55285 19-790): T1 sequence (P55285 19-790)
# B1: rG019: rat anti-human CDH6 monoclonal antibody produced by hybridoma rG019; variable regions SEQ ID NO: 10 and 15 (antibody, listed as Rattus norvegicus, V domains shown)
# VL: DIQMTQSPSLLSASVGDRVTLNCKASQNIYKNLAWYQQKLGEGPKLLIYDANTLQTGIPSRFSGSGSGSDFTLTISSLQPEDVATYFCQQYYSGWAFGGVTNLELKRA
# VH: QVQLQQSGAELVKPGSSVKISCKASGYTFTRNFMHWIKQQPGNGLEWIGWIYCGDGETEYNQKFNGKATLTADRSSSTAYMELSRLTSEDSAVYFCARGVYGGFAGGYFDFWGQGVMVTVSS
# B2: rG055: rat anti-human CDH6 monoclonal antibody produced by hybridoma rG055; variable regions SEQ ID NO: 20 and 25 (antibody, listed as Rattus norvegicus, V domains shown)
# VL: DVQMTHSPSYLAASPGESVSISCKTSKNISNYLVWYQQKPGEAYKLLIYSGSTLQSGTPSRFSGSGSGTDFTLTIRSLEPEDFGLYFCQQYYEKPFTFGSGTKLEIKRA
# VH: EVQLQESGPGLVRPSQSLSLSCSVTDYSITSNYWGWIRRFPGNKMEWMGYITYSGYTSYNPSLQSRISITRDTSKNQFFLQLNSVTAEDTATYYCARSINHGGYSYVVDAWGPGASVTVSS
# B3: rG056: rat anti-human CDH6 monoclonal antibody produced by hybridoma rG056; variable regions SEQ ID NO: 30 and 35 (antibody, listed as Rattus norvegicus, V domains shown)
# VL: DVQMTQSPSSLAASPGESVSISCRATKSIGIYLAWYQQKPGKTFKLLIYSGSTLQSGTPSRFSGSGSGTDFTLTIRSLEPEDFGLYFCQQFYENPFTFGSGTKLEIRRA
# VH: EVQLQESGPGLVKPSQSLSLTCSVTDYSITTYFWGWIRKFPGNKMEWMGYMSYRGGTSYNPSLKSRISITRDTSKNQFFLQLNSVTTEDTATYYCARCPNYGGHSLVFDYWGQGVMVTVSS
# B4: rG061: rat anti-human CDH6 monoclonal antibody produced by hybridoma rG061; variable regions SEQ ID NO: 40 and 45 (antibody, listed as Rattus norvegicus, V domains shown)
# VL: B2 VL with H6Q, T25A, S26T, N28S, V34A, L46V, F87S, F96L
# VH: EVQLQESGPGLVKPSQSLSLTCSVTGYSITTYYWGWIRKFPGNKMEWMGYISYSGRTSYNPSLKSRMSITRDASKNQFFLQLNSVTTDDTATYYCARSPINHGGYWYFDFWGPGTMVTVSS
# Target: T1, hCDH6-transfected 293T cells
# Assay: Binding ability of rat anti-CDH6 antibody by flow cytometry
# Conditions: antibody final concentration 10 ng/mL
# Description: The human CDH6-binding activity of the rat anti-CDH6 antibody produced in Reference Example 1)-7 was evaluated by flow cytometry. Using Lipofectamine 2000 (Thermo Fisher Scientific Inc.), pcDNA3.1-hCDH6 produced in Reference Example 1)-1 was transiently introduced into 293T cells (ATCC). The cells were cultured overnight under conditions of 37° C. and 5% CO2, and thereafter, a cell suspension was prepared. The suspension of the transfected 293T cells was centrifuged, and the supernatant was then removed. Thereafter, the cells were suspended by the addition of each of the 4 rat anti-CDH6 monoclonal antibodies (clone Nos: rG019, rG055, rG056 and rG061), which had been prepared in Reference Example 1)-7, or rat IgG control (R&D Systems, Inc.) (final concentration: 10 ng/mL). The cells were left standing at 4° C. for 1 hour. The cells were washed twice with PBS supplemented with 5% FBS, and then suspended by the addition of Anti-Rat IgG (whole molecule)-FITC antibody produced in rabbit (Sigma-Aldrich Co. LLC) that had been 50-fold diluted with PBS supplemented with 5% FBS. The cells were left standing at 4° C. for 1 hour. The cells were washed twice with PBS supplemented with 5% FBS, followed by detection using a flow cytometer (FC500; Beckman Coulter, Inc.). The data was analyzed using FlowJo (Tree Star, Inc.). In the histogram of FIG. 1, the abscissa depicts FITC fluorescence intensity indicating the amount of the antibody bound, and the ordinate depicts a cell count. […] The rat IgG control binds to neither of the cells. As a result, it was confirmed that the 4 produced rat anti-CDH6 monoclonal antibodies bind to 293T cells transfected with pcDNA3.1-hCDH6.
row,binding to 293T cells transfected with pcDNA3.1-hCDH6,Molecule
1,bind,B1
2,bind,B2
3,bind,B3
4,bind,B4

# Target: T2, human CDH6
# Assay: Hybridoma screening by Cell-ELISA
# Format: binding
# Conditions: hybridoma culture supernatant; 293α cells transfected with pcDNA3.1-hCDH6
# Description: 293α cells (a stable expression cell line derived from HEK293 cells expressing integrin αv and integrin β3) were prepared at 5×10^5 cells/mL in DMEM medium supplemented with 10% FBS. In accordance with transduction procedures for using Lipofectamine 2000 (Thermo Fisher Scientific Inc.), DNA of pcDNA3.1-hCDH6 or pcDNA3.1-cynoCDH6, or pcDNA3.1 as a negative control was introduced into the 293α cells, and the cells were dispensed in an amount of 100 μL/well onto a 96-well plate (Corning Inc.). Thereafter, the cells were cultured under conditions of 37° C. and 5% CO2 in DMEM medium supplemented with 10% FBS for 24 to 27 hours. The obtained transfected cells were used for Cell-ELISA in an adhesive state.
# The culture supernatant of the 293α cells transfected with the expression vector prepared in Reference Example 1)-4-1 was removed, and the culture supernatant from each hybridoma was then added to the 293α cells transfected with pcDNA3.1-hCDH6 or pcDNA3.1-cynoCDH6, or pcDNA3.1. The cells were left standing at 4° C. for 1 hour. The cells in the wells were washed once with PBS (+) supplemented with 5% FBS, and thereafter, Anti-Rat IgG-Peroxidase antibody produced in rabbit (Sigma-Aldrich Co. LLC) that had been 500-fold diluted with PBS (+) supplemented with 5% FBS was added to the wells. The cells were left standing at 4° C. for 1 hour. The cells in the wells were washed three times with PBS (+) supplemented with 5% FBS, and thereafter, OPD coloring solution (which had been prepared by dissolving o-phenylenediamine dihydrochloride (Wako Pure Chemical Industries, Ltd.) and H2O2 in an OPD solution (0.05 M trisodium citrate, 0.1 M disodium hydrogen phosphate 12-water; pH 4.5), so that the substances became 0.4 mg/ml and 0.6% (v/v), respectively, was added in an amount of 100 μL/well to the wells. A coloring reaction was carried out with occasional stirring. Thereafter, 1 M HCl was added to the plate (100 μL/well) to terminate the coloring reaction, followed by measurement of the absorbance at 490 nm using a plate reader (ENVISION: PerkinElmer, Inc.).
# The heavy chain subclass and the light chain type of the antibody were determined using a RAT MONOCLONAL ANTIBODY ISOTYPING TEST KIT (DS Pharma Biomedical Co., Ltd.).
row,binding to human CDH6,Molecule
1,bind specifically and strongly,B1
2,bind specifically and strongly,B2
3,bind specifically and strongly,B3
4,bind specifically and strongly,B4
